# Measured values published in article PMC2396850.
# B1: Tumour-associated antigen L6 (L6-Ag), endogenous (natural protein)
# chain: MCYGKCARCIGHSLVGLALLCIAANILLYFPNGETKYASENHLSRFVWFFSGIVGGGLLMLLPAFVFIGLEQDDCCGCCGHENCGKRCAMLSSVLAALIGIAGSGYCVIVAALGLAEGPLCLDSLGQWNYTFASTEGQYLLDTSTWSECTEPKHIVEWNVSLFSILLALGGIEFILCLIQVINGVLGGICGFCCSHQQQYDC
# Biological target: various tetraspanins
# Assay: co-IP
binder,measurement,value
B1,percent of the total L6-Ag co-immunoprecipitated (% of the total L6-Ag),10 to 15
